Measurements published in publication PMC11745410.

Target: TAX9-loaded HLA-A*02:01/β2m
Assay: SPR

## TAPBPR^∆ALAS (A29-S32 deletion) (from UniProt Q9BX59 22-405) (natural protein)
  fold decrease in KD against TAPBPR^WT (so in the source): 3 fold

## TAPBPR^∆G24-R36 (G24-R36 deletion) (from UniProt Q9BX59 22-405) (natural protein)
  fold decrease in KD against TAPBPR^WT (so in the source): 3 fold
